Laboratory results taken from patent US10654918B2, “Inflammatory disease diagnosis and methods of treatment using down-regulators of lipopolysaccharide-responsive beige-like anchor” (University of South Florida, priority 2013, dated 2020).

Key:
Format in all cases: cell-based, human
[1] = test system: MAPKs [p42/44, p38 and Jun N-terminal kinase (JNK)]; assay: MAPK Western blot in Raji and Raji9 cells; conditions: LRBA KD Raji cells, LPS
Description: FIGS. 47(A) and (B). Knockdown of LRBA deregulates MAPKs. Knockdown of LRBA upregulates p38 and JNK but downregulates p42/44. Half million of Raji or Raji9 cells were put in a well in a 6 well plate. After 24 hr, cells were treated with or without LPS for the time as indicated. 200 μl RIPA buffer with protease inhibitors and PMSF. (A) Western blot of cells was performed. 30 μl of cell extracts were loaded to ach well. Phosphorylated protein levels were normalized to β-Actin shown as the numbers between the two blots. (B) curves based on the Western blots. Quantity One software was used to quantify the levels.
Like NF-κB, the mitogen-activated protein kinases (MAPKs) act as funnels to collect many stress-activated signals but function as bottle necks to filter and process these signals, and then have many diverse targets(26). Specifically, MAPKs are critical downstream hubs of the TLR4/LPS signal transduction(27) and may be affected by LRBA deficiency. The expression and activation of the three major MAPKs [p42/44, p38 and Jun N-terminal kinase (JNK)] were examined in Raji cells. […] The phospho-p42/44 measured by flow cytometry intracellular staining also is decreased (data not shown). […] The Drosophila MAPK and JNK have 82% and 78% identities with their human orthologues, respectively.

NFκB = NFκB luciferase activity in A549 clones with LRBA shRNA knockdown; conditions: A549 clones with different knockdown levels, LPS 10 μg/ml; dose-dependent
Text: FIG. 45A-D. Knockdown of LRBA deregulates NFκB. (A) Knockdown of LRBA increases NFκB luciferase activity. An NFκB luciferase reporter was used to measure the NFκB transcription activity. The data are shown as scatter with bar graph of mean with standard error of mean (SEM). (B) Knockdown of LRBA increases phospho-NFκB. The Phosflow kit including Cytofix Fixation Buffer, Phosflow Perm Buffer III and Stain Buffer (BD) and phospho-antibodies, NFκB p65 (pS529) PE-Cy7 were used for the intracellular staining following the company's instruction. For each samples, 50,000 cells were recorded for the FACS assay. (C) A549 cells were stably transfected with LRBA shRNA knockdown plasmid and several clones were picked up. Half million of cells were seeded in a well of a 24 well plate and incubated overnight, then stimulated with LPS (10 μg/ml) for certain time. Luciferase assay Biotium. NFκB luciferase activity is inversely dose-dependent on the LRBA levels in A549 cells with different levels of LRBA knockdown judged by the GFP levels of the cells stably transfected with the LRBA shRNA/GFP construct. (D) LRBA KD#3, LRBA KD#4 and LRBA KD#5 clones express different levels of GFP expression from low to high. The GFP expression levels can be an indicator of shRNA expression levels and are inversely related to the levels of LRBA. […]

A549 cells = assay: Western blot of A549 and A549 pLAsiGFP cells treated with LPS; conditions: for TLR4 levels (Western blot): vs untransfected A549 cells
Description: (§1) FIGS. 4A-B are a blot and graph showing knockdown of LRBA increases the TNFα levels in A549 cells (adenocarcinomic human alveolar basal epithelial cells). A549 cells and A549 pLAsiGFP cells (stably transfected with shRNA plasmid against LRBA) were treated with LPS (1 μg/ml). The TNFα concentrations were detected by Western blot. Cells were cultured in 6-well plates and stimulated with LPS (1 μg/ml) for different time as shown, then lysed with RIPA buffer. Western blots were carried out. TNFα antibody (sc-1351. Santa Cruz Biotechnology, Santa Cruz, USA) was used at 1:500 ratio and incubated at 4° C. overnight. BioRad ChemiDoc XRS and Quantity One software were used to acquire gel image and measure band relative intensity. (A) Western blot. 1. A549 No LPS, 2. A549 LPS 30 min, 3. A549 LPS 1 hr, 4. A549 LPS 2 h, 5. A549 LPS 4 h, 6. A549 LPS 24 h, 7. A549 pLAsiGFP LPS 2 h, 8. A549 pLAsiGFP LPS 4 h, 9. A549 pLAsiGFP LPS 24 h. (B) Band intensity quantification from A.
as §1, with “FIG. 17(A)-(B)” for “FIGS. 4A-B”, “series of graphs” for “blot and graph”, “TLR4” for “TNFα”, “cells.” for “cells (adenocarcinomic human alveolar basal epithelial cells).”
FIGS. 31(A) and (B) are a blot and graph showing knockdown of LRBA decreases the total NFκB levels in A549 cells. A549 LIRII cells (stably transfected with pLRBA-VHS) and A549 pLAsiGFP cells (stably transfected with shRNA plasmid against LRBA) were treated with LPS (1 μg/ml). The NFκB concentrations were detected by Western blot. Cells were cultured in 6-well plates and stimulated with LPS (1 μg/ml) for different time as shown, then lysed with RIPA buffer. Western blots were carried out. NF-κB2 p100/p52 Antibody #4882 (Cell Signaling Technology, Danvers, Mass., USA) was used at 1:500 ratio and incubated at 4° C. overnight. BioRad ChemiDoc XRS and Quantity One software were used to acquire gel image and measure band relative intensity. A. Western blot. B. Band intensity quantification from A.

B1: LRBA shRNA: shRNA plasmid against LRBA; targeted LRBA sequence SEQ ID No. 15 GGGATATTGTAGAAACTGTCTTT (nucleic acid)
sense: GGGATATTGTAGAAACTGTCTTTTTCAAGAGAAAAGACAGTTTCTACAATATCCCTTTTTT
antisense: CCCTATAACATCTTTGACAGAAAAAGTTCTCTTTTCTGTCAAAGATGTTATAGGGAAAAAA
Question: Which JNK kinase activity [1] does the source give for B1 here?
Answer: increased

Question: What about the p38 kinase activity [1] of the same molecule?
Answer: increased

Question: What about the p42/44 kinase activity [1] of the same molecule?
Answer: reduced

Question: What about the NFκB luciferase activity (NFκB) of the same molecule?
Answer: increases

Question: And the “TLR4 levels (Western blot)” value (A549 cells; 2 h and 4 h after LPS stimulation (1 μg/ml))?
Answer: increases

Question: What about the “TLR4 levels (Western blot)” value (A549 cells; 24 h after LPS) of the same molecule?
Answer: no difference

Question: And the “total NFκB levels (Western blot)” value (A549 cells; LPS 1 μg/ml, A549 pLAsiGFP cells)?
Answer: decreases

Question: What about the “TNFα levels (Western blot)” value (A549 cells; LPS 1 μg/ml, A549 pLAsiGFP vs A549) of the same molecule?
Answer: increases
